Assays:
MS2 coat protein [1] = assay: apparent KD of MS2 coat protein, switch OFF state (with FMN for OFF switches, without FMN for ON switches); designed switch direction (-1 OFF switch, 1 ON switch): 1; higher = weaker reporter binding; settings: FMN input: 0 or 200 uM; Eterna round: R93 (includes R88 designs)
Procedure, shortened: (§1)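 Designed RNA switches, transcribed on-chip from Illumina sequencing clusters, were titrated with SNAP-549-labelled MS2 coat protein from 0.7 or 1.5 nM to 3 µM in twofold steps. The solution was 100 mM Tris-HCl pH 7.5, 80 mM KCl, 4 mM MgCl2, with constant ligand or without it. Apparent KD is the median over each design's normalised cluster binding-curve fits.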

MS2 coat protein [2] = assay: apparent KD of MS2 coat protein, switch ON state; designed switch direction (-1 OFF switch, 1 ON switch): 1; higher = weaker reporter binding; settings: FMN input: 0 or 200 uM; Eterna round: R93 (includes R88 designs)
Procedure, shortened: as §1

Sequence | apparent KD of MS2 coat protein (MS2 coat protein [1]) | apparent KD of MS2 coat protein (MS2 coat protein [2])
CAUAGACAUGAGGAUCACCCAUGUAGAAUUAUGGGAGGAUAUACAAAGACGAGAGUCAGAGUAGAAGGCCUAGGAU [salish99-ss1-162] | 35.6 nM | 24.1 nM
AACAUACAUGAGGAUCACCCAUGUUAGGUGGGACUAGGAUAUCAAUCGAAAGUGUUAUAAUGAGAAGGAGUAUAAA [JR_SS001_Sub015] | 209 nM | 127 nM
AGAAAUAAAGCAGAGGAUAUCCAAAAGAAAACAUGAGGAUCACCCAUGUAAAAGAAAAUAAAAUGGGAGAAGGCUGCAAAUAAAG | 23.9 nM | 18.5 nM
GAAAAACAUGAGGAUCACCCAUGUAGAAAUAUGGAAGGAUAUACAAAGACGAAACUGAAAGUAGAAGGUCUAAAAG [Garnet 95] | 22.1 nM | 23.2 nM
GAGUACAUAGUACAGGAUAUAUGAAUAGUUACAUGAGGAUCACCCAUGUGCAUUUAUAUGCGCACAUAGAAGGGUGGUAGGUAUC [Mat - Same state - Malcolm Mod - D127] | 29.4 nM | 38.8 nM
AAGAAUGUUUACGAGGAUAUGUUCCGCAGAACAUGAGGAUCACCCAUGUGAACAAGAAAGGCGACGCAGAAGGCGUGAGCAAAGA [Laatreve] | 324 nM | 45.7 nM
AGAAAACAUGAGGAUCACCCAUGUAGAAACAUGGGAGGAUAUACAAAGACGAAAGUCAAAGUAGAAGGCCUAAAGA [Mat - Same State 1 - Mod - D161] | 152 nM | 207 nM
GGCAAACAUGAGGAUCACCCAUGUCAGUGCUAUCAAGGAUAUGGGAUGACGGAAGGUCGGCCAGAAGGUGAGAAAG [Quededma] | 406 nM | 233 nM
AAAACACAUGAGGAUCACCCAUGUAAAAACAUGGGAGGAUAUGCAUGAAAAACAUGCUAUGCAGAAGGCUCAUGUG [SS1 - 2] | 99.1 nM | 29 nM
AAUGAACAUGAGGAUCACCCAUGUUUUAAUAGUUGAGGAUAUAAGGGUGAAAAUAGCACAUUAGAAGGCGAGUGUA [SameState1 Malc#15] | 38 nM | 39.4 nM
UAAAAACAUGAGGAUCACCCAUGUAGAAAUAUGGGAGGAUAUACAAAGACGAAAGUCAAAGUAGAAGGCCUGAAAU [Mat - Same State 1 - Eli mod - 85] | 88.7 nM | 21.5 nM
GAAAAACAUGAGGAUCACCCAUGUAGAAAUAUGGGAGGAUAUACAAAGACGAAAGUCAAAGUAGAAGGCCUCAAAG [JL S1 M-MoE mod 2 In the Red] | 78.2 nM | 84.9 nM
GGGAGACAUGAGGAUCACCCAUGUGAGAAGAGGCGAGGAUAUCGAAAGAAAGAAGAGAAACGAGAAGGCGCGAGGU [salish99-SS1-055] | 72.3 nM | 39.8 nM
AAGACACAUGAGGAUCACCCAUGUCAAGAGAGACGAGGAUAUCUGAAAAAAAAAAAAAAAGGAGAAGGCGUGAAAA [Same State of Confusion] | 69.3 nM | 33.5 nM
AAACUGGAGGACAAGGAUAUGUGCUCUACGACAUGAGGAUCACCCAUGUGAGACGUAGUAGUGAAACAGAAGGUGUCCUAUUGUU [Qulece] | 27.4 nM | 11.6 nM
AAAAAACAUGAGGAUCACCCAUGUAAAAAAAACACAGGAUAUCCCUUUUUUAAAUGGGAAGGAGAAGGGUGAAAAA [Nob's Hobby 11 - Jieux - Same State 1] | 36.2 nM | 43.1 nM
AGGAGACAUGAGGAUCACCCAUGUGAGAAGAGGCGAGGAUAUCGAAAGAAAGAAGAGAAACGAGAAGGCGCGAGUC [salish99-SS1-030] | 37 nM | 25.6 nM
AGGAAACAUGAGGAUCACCCAUGUAAAGAUGGAGGAGGAUAUCGAAAGAAAAGAAAGAAACGAGAAGGCCUAAAAG [59%, Flamingo, 2] | 99.2 nM | 20.9 nM
AGAAAUAAAAGAGAGGAUAUCUUAAAGAAAACAUGAGGAUCACCCAUGUAAAAGAAAAUAAAAUGGGAGAAGGCUCAUAAUAAAG [JL Skelter Mod 4 In the Red] | 109 nM | 151 nM
AAAAAAUAAAAAAAGGAUAUAAUCGAUGGAACAUGAGGAUCACCCAUGUGACAUCGAAAAAUAAAAAAGAAGGAAAAAUAAAAAA [SS2: MS2 24] | 11.2 nM | 17.6 nM
GAAAAACAUGAGGAUCACCCAUGUGAUAACAUGGGAGGAUAUACGAGGACGAUAGUCAAGGUAGAAGGCCUAAAAG [Garnet 60] | 24.6 nM | 132 nM
AACACGCGGGCGCAGGAUAUGUCGCUGGUGACAUGAGGAUCACCCAUGUAUACCAUUGCGGUUGAGCAGAAGGGUGAGAUGCGUG [Beisesanxe] | 59.5 nM | 15.9 nM
UGGAGACAUGAGGAUCACCCAUGUGAGAAGAGGCGAGGAUAUCGAAAGAAAGAAGAGAAACGAGAAGGCGCGAGGG [salish99-SS1-043] | 52.1 nM | 49.7 nM
CAUCAUGCGUCUAAGGAUAUGUCUCACAAGACAUGAGGAUCACCCAUGUAGAAUAAAUAAAUGAUGCAGAAGGUGGAGCGCAUGC [Erzausis] | 283 nM | 53.2 nM
AGGAAACAUGAGGAUCACCCAUGUAAAAAUAUGGGAGGAUAUGCGAAAAGAAACAAAGAAGCAGAAGGCCUAAAAA [75%, Ex sub1, 21] | 66.9 nM | 21.9 nM
AAAAAACAUGAGGAUCACCCAUGUAAAAAAAACACAGGAUAUCCCUUUUUUAAAAAAAAAGGAGAAGGGUGAAAAA [Nob's Hobby 7 - Jieux - Same State 1] | 31.5 nM | 31.1 nM
AGGAAACAUGAGGAUCACCCAUGUAAAAAUAUGGGAGGAUAUACGAAGACGAAAGUGAGAGUAGAAGGCCUAAAAG [Garnet 8] | 87.7 nM | 30.9 nM
CGAUCACAUGAGGAUCACCCAUGUAUCGAUAAACGAGGAUAUGGGAGCGGGAUCUGUGGACCAGAAGGCGUACGGA [Celeus] | 38.7 nM | 23.4 nM
AAAUAACAUGAGGAUCACCCAUGUUGCAACGAUACAGGAUAUGUGGGUGAAAAUAGCAUGACAGAAGGGUAAUGUA [SameState1 Malc#31] | 35 nM | 401 nM
CGAAAGGAGAGAGAGGAUAUCCAAAGGAAAACAUGAGGAUCACCCAUGUAGAAGGUAGGAGAUUGGGAGAAGGCUCAAGCAAAAG [salish99-ss2-155] | 26.4 nM | 29 nM

— the supplement of paper PMC9170038
